Data published in patent US20020002269A1, “ARTEMIN, A NEUROTROPHIC FACTOR” (priority 1998, published 2002).

How the values were obtained:
[1] = system: SH-SY5Y neuroblastoma cell line; experiment: Differentiation of SH-SY5Y neuroblastoma cells; format: cell-based; conditions: 10 μM, three days after factor addition, FIG. 8B
Procedure: In one experiment, cells from the SH-SY5Y neuroblastoma cell line were plated at 2×10^5 cells/ml/well in 12-well tissue culture plates. After one day in culture cells were either left untreated (Cn) or stimulated with 50 ng/ml artemin (ART) or 10 μM retinoic acid (RA), a known inducer of differentiation of SH-SYSY cells. Three days after factor addition, differentiation was assessed and cells were photographed.

[2] = molecular target: recombinant GDNF (human mature amino acid sequence) (human); experiment: plate binding assay: ligand coated, soluble receptor body titrated, anti-human Fc-HRP, A450; apparent Kd
[3] = molecular target: recombinant neurturin (human mature amino acid sequence) (human); experiment: as above
[4] = molecular target: recombinant human artemin protein (human); experiment: as above
[5] = system: dorsal root ganglion (DRG) neurons; experiment: Survival of cultured dorsal root ganglion neurons; format: cell-based, rat; conditions: 50 ng/ml, 3 days in culture, FIG. 7A
Procedure: (§1) Each GDNF ligand family member consisted of the human mature amino acid sequence and was produced by standard recombinant DNA methods. Recombinant GDNF, neurturin and persephin were obtained from Genentech while recombinant artemin was produced as described in Example 3.
(§2) The cultures were performed using standard methods described elsewhere (Kotzbauer et al., Neuron 12:763-773, 1994; Kotzbauer et al., Nature 384:467-470, 1996; Milbrandt et al., Neuron 20:245-253, 1998). In brief, for SCG neurons, after dissection and dissociation, neurons were plated on collagen-coated 24-well tissue culture plates and maintained in NGF-containing medium (AM50) for 5 days, after which they were either kept in AM50 or switched to medium containing neutralizing anti-NGF antibodies plus GDNF, neurturin, persephin, artemin, (50 ng/ml where not noted otherwise), or no growth factors. Cultures were maintained for 3 days, after which they were fixed in 4% paraformaldehyde and stained with toluidine blue, and surviving neurons were counted. For nodose ganglion and dorsal root ganglion neuron cultures, dissociated neurons were plated directly into NGF (for dorsal root ganglia), or BDNF (for nodose ganglia, 100 ng/ml) or one of the GDNF ligands in serum-containing medium (AM50 with anti-NGF antibodies), and cells surviving after 3 days in culture were counted as above. Trigeminal ganglia were dissected, dissociated, and plated directly into medium containing NGF or the indicated GDNF ligands, and the number of surviving cells was assessed after 3 days in vitro. For all culture systems, 2-3 independent experiments were performed.

[6] = system: trigeminal ganglion (TG) neurons; experiment: Survival of cultured trigeminal ganglion neurons; format: cell-based, rat; conditions: 50 ng/ml, 3 days in vitro, FIG. 7C
Procedure: as §1, §2

[7] = system: nodose ganglion (NG) neurons; experiment: Survival of cultured nodose ganglion neurons; format: cell-based, rat; conditions: FIG. 7D
Procedure: as §1, §2

[8] = system: CHP126 neuroblastoma cell line; experiment: Responsiveness of a neuroblastoma cell line that does not express RET (CHP126); format: cell-based; conditions: data not shown
[9] = system: CHP134 neuroblastoma cell line; experiment: Responsiveness of a neuroblastoma cell line that does not express RET (CHP134); format: cell-based; conditions: data not shown
[10] = system: SAN neuroblastoma cell line; experiment: Responsiveness of a neuroblastoma cell line that does not express RET (SAN); format: cell-based; conditions: data not shown
GFRα1-Fc = experiment: Direct binding of soluble GFRα1-Fc receptor body to plate-coated ligand; conditions: ligand coated at 325 ng/ml, absence of RET, FIG. 9C
Procedure: (§3) To investigate which if any of the known coreceptor(s) artemin can utilize to activate RET, its ability to directly bind to soluble Fc-fusion forms of GFRα1, GFRα2, or GFRα3 was assessed. GFRα1-Fc, GFRα2-Fc and GFRα3-Fc fusion proteins were obtained from R&D Systems. Binding assays were performed similarly to assays previously described (Sanicola et al., Proc. Natl. Acad. Sci., USA 94:6238-6243, 1997). Recombinant GDNF, neurturin, artemin, persephin, or purified bovine serum albumin (BSA; Pierce) were coated to Nunc-Immuno MaxiSorp microtiter plates at 325 ng/ml in TBS (10 mM Tris-HCl pH 7.5, 150 mM NaCl) for 1 hour at 25° C. Plates were washed (3× in TBS/0.03% Tween-20), and then blocked (blocking solution: TBS/1% BSA) for 1 hr at 25° C. Receptor bodies diluted in blocking solution were added and incubated for 2 hr at 25° C., washed 5X, then incubated with 1:10,000 dilution of HRP-conjugated anti-human Fc antibodies in blocking solution (Jackson Immunoresearch) for 45 minutes at 25° C. Finally, wells were washed 5× and the presence of HRP was assayed by addition of the chromogenic substrate 3,3, 5,5-tetramethylbenzidine for 5 min. The reaction was stopped by adding an equal volume of 0.5M H2SO4, and color was measured in a plate reader at 450 nm. Non-specific binding of receptor bodies to the plates was measured in BSA coated wells, and this binding was subtracted from all other measurements.

GFRα2-Fc = experiment: Direct binding of soluble GFRα2-Fc receptor body to plate-coated ligand; conditions: ligand coated at 325 ng/ml, absence of RET, FIG. 9D
Procedure: as §3, with “Finally, wells were washed 5× and the presence of HRP was assayed by addition of the chromogenic substrate 3,3, 5,5-tetramethylbenzidine for 5 min.” left out

[11] = system: NBL-S neuroblastoma cell line; experiment: BrdU cell proliferation assay in NBL-S neuroblastoma cells; format: cell-based; conditions: 50 ng/mL, 30 hrs after factor addition, FIG. 8D
Procedure: In another experiment, the ability of artemin to induce proliferation of the NBL-S neuroblastoma cell line was examined. NBL-S cells were plated at 5×10^4 cells/well on 48-well plates in standard medium, either without treatment or in the presence of 50 ng/mL of GDNF, artemin, or persephin. Actively dividing cells undergoing DNA synthesis 30 hrs after factor addition were detected using the BrdU (colorimetric) cell proliferation assay kit according to the manufacturer's instructions (Boehringer-Mannheim) and the data are shown in FIG. 8D.

Molecule: CC1=C(/C=C/C(C)=C/C=C/C(C)=C/C(=O)O)C(C)(C)CCC1 [retinoic acid, all-trans retinoic acid, reference compound]
- differentiation (neurite outgrowth, neuronal morphology) of SH-SY5Y cells [1]: induced strong differentiation responses

Molecule: GFRα1-Fc fusion protein
- Kd [2]: 3 nM
- Kd [3]: 3 nM

Molecule: GFRα2-Fc fusion protein
- Kd [3]: 3 nM

Molecule: GFRα3-Fc fusion protein
- Kd [4]: 3 nM

B1: neurturin: recombinant human mature neurturin obtained from Genentech (protein, UniProt Q99748 96-197, looked up)
Neurturin: ARLGARPCGLRELEVRVSELGLGYASDETVLFRYCAGACEAAARVYDLGLRRLRQRRRLRRERVRAQPCCRPTAYEDEVSFLDAHSRYHTVHELSARECACV
- survival of DRG sensory neurons [5]: supported the survival of a subset of sensory neurons
- survival of TG sensory neurons [6]: supported the survival of a subset of sensory neurons
- survival of NG neurons ([7]; 50 ng/ml, 3 days in culture): supported similar numbers of NG neurons
- survival promotion of NG neurons compared with BDNF ([7]; GDNF family ligands 50 ng/ml, BDNF 100 ng/ml): equal or greater survival promotion than BDNF
- response of CHP126 cells [8]: did not respond
- response of CHP134 cells [9]: did not respond
- response of SAN cells [10]: did not respond
- direct binding of GFRα1-Fc (GFRα1-Fc): able to bind to both GDNF and neurturin with similar affinity
- direct binding of GFRα2-Fc (GFRα2-Fc): bound to neurturin

B2: persephin: recombinant human mature persephin obtained from Genentech (protein, UniProt O60542 22-156, looked up)
Persephin: WGPDARGVPVADGEFSSEQVAKAGGTWLGTHRPLARLRRALSGPCQLWSLTLSVAELGLGYASEEKVIFRYCAGSCPRGARTQHGLALARLQGQGRAHGGPCCRPTRYTDVAFLDDRHRWQRLPQLSAAACGCGG
- proliferation of NBL-S cells (BrdU incorporation) [11]: did not
- direct binding of GFRα1-Fc (GFRα1-Fc): not to persephin or artemin
